# Measurements reported in patent US20190032036.
# Assays:
# Assay in all cases: cell_activity
# [1] = biological target: SpCas9 R1060A R1060A (Streptococcus pyogenes) (UniProt Q99ZW2)
# [2] = biological target: SpCas9 R780A R780A (Streptococcus pyogenes) (UniProt Q99ZW2)
# [3] = biological target: SpCas9 K855A (Streptococcus pyogenes) (UniProt Q99ZW2)
# [4] = biological target: SpCas9 K848A K848A (Streptococcus pyogenes) (UniProt Q99ZW2)
# [5] = system: SpCas9 R976A R976A (Streptococcus pyogenes)
# [6] = biological target: SpCas9 K1003A K1003A (Streptococcus pyogenes) (UniProt Q99ZW2)
# [7] = system: SpCas9 H982A H982A (Streptococcus pyogenes)
# [8] = biological target: SpCas9 K810A K810A (Streptococcus pyogenes) (UniProt Q99ZW2)
substance,measurement,setting,value
EMX1(1) sgRNA guide ; EMX1 OT25,activity,[1]; WT 10.5,1.3 % indel
same,activity,[2]; WT 10.5,0 % indel
same,activity,"[3]; WT 10.5, on-target 25.1 in same table",0.2 % indel
same,activity,[4]; WT 10.5,0.1 % indel
same,activity,[5]; WT 10.5,0.1 % indel
same,activity,[6]; WT 10.5,4.1 % indel
same,activity,[7]; WT 10.5,0.5 % indel
same,activity,[8]; WT 10.5,0.1 % indel
EMX1(1) sgRNA guide ; EMX1 OT46,activity,[1]; WT 8.8,1.8 % indel
same,activity,[2]; WT 8.8,0.1 % indel
same,activity,[3]; WT 8.8,0.3 % indel
same,activity,[4]; WT 8.8,0.1 % indel
same,activity,[5]; WT 8.8,0.1 % indel
same,activity,[6]; WT 8.8,2.8 % indel
same,activity,[7]; WT 8.8,0.4 % indel
same,activity,[8]; WT 8.8,0.1 % indel
